Assay results taken from the supplement of paper PMC9170038.

Test system: MS2 coat protein
Assay: apparent KD of MS2 coat protein; designed switch direction (-1 OFF switch, 1 ON switch): -1; higher = weaker reporter binding
In short: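 Normalised cluster fluorescence was curve-fitted, and each design's median over clusters is its apparent KD. Before this, SNAP-549-labelled MS2 coat protein was titrated from 0.7 or 1.5 nM, doubling to 3 µM, over RNA switches transcribed on Illumina chips by stalled E. coli RNA polymerase. Titrations had no input, 200 uM small-molecule ligand, or an oligonucleotide input, and steps lasted 0.8–1.5 h (lowest) to 10–20 min (highest).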

[1] = Eterna round: R95, input ligand: microRNA oligo, concentration not stated
[2] = Eterna round: R95, input ligand: FMN 200 uM
[3] = Eterna round: R95, input ligand: none
[4] = input ligand: microRNA oligo, concentration not stated

Row | Sequence | apparent KD of MS2 coat protein (input ligand: FMN 200 uM) | apparent KD of MS2 coat protein (input ligand: none) | apparent KD of MS2 coat protein [1] | apparent KD of MS2 coat protein [2] | apparent KD of MS2 coat protein [3] | apparent KD of MS2 coat protein [4]
1 | CUUUUGUGAGGAUAUUAAUAGUAAGUAAAUAAAAUUAUUACUAAGAAGGCACAUGAGGAUCACCCAUGUUUCUC [EX4 #83] (Eterna round: R97, puzzle: Exclusion 4) | 0.0768 µM | 0.0418 µM | – | – | – | –
2 | CUGUACUGAGGAUAUACAUGAGGAUCACCCAUGUGUCCUGGCUAGGAAACUAGCAAAGGUAGAAGGCAGUACAG [Mat - Exclusion 3 - Eli Mod - D54] (Eterna round: R97, puzzle: Exclusion 3) | 0.15 µM | 0.0188 µM | – | – | – | –
3 | UCAUAACAUGAGGAUCACCCAUGUCAGGAUAUGAUACUAUGUACUUCGGUACAUAGUAUCAGAAGGGACAUACU [Ex1-3: 12] (puzzle: Exclusion 1) | – | – | 0.103 µM | – | – | –
4 | GAAAAGGUAGGAUAUAUGAAAAAAAAGGGUAGAAAAAAAACACAUGAGGAUCACCCAUGUAGAAGGACCAAAAG [salish99_ex2_r3_056] (puzzle: Exclusion 2) | – | – | 0.0463 µM | 0.0372 µM | 0.0269 µM | –
5 | AUAUCAAGCAAGGAUAUGCAAAUGGUUAUUUAUGCAGAAGGUGCGACAUGAGGAUCACCCAUGUUUCUGGGUUU [JR_E6_Sub050] (puzzle: Exclusion 6) | – | – | 0.0682 µM | – | – | –
6 | GGCUUCUGAGGAUAUUAACACCGUUACAUGAGGAUCACCCAUGUUCCUCACGCUACGGCUUAAGAAGGCAGAUGAA [Eternabot (Original) Solution 32] (Eterna round: R97, puzzle: Exclusion 5) | 0.0296 µM | 0.0649 µM | – | – | – | –
7 | GAUUGACAUGAGGAUCACCCAUGUGAGGAUAUCGUCUGGUACGUGUUGGCUGGCAUCUCGAGAAGGCGCAUAGG [Exclusion 1 V56] (puzzle: Exclusion 1) | – | – | 0.0594 µM | 0.103 µM | 0.0764 µM | –
8 | GUGGUCCGAGGAUAUAUUAUGUGAUACAUGAGGAUCACCCAUGUUAUAUAAUGGAUGUUAGUAGAAGGCGGACUAC [Mat - Exclusion 5 - JL mod - D83] (puzzle: Exclusion 5) | – | – | 0.056 µM | 0.107 µM | 0.0491 µM | –
9 | UCGGCGCGAGGAUAUGCGGUUUGUGCUUUGGGCCCUGGCGUACAUGAGGAUCACCCAUGUAGAAGGCGCGUUGC [Apr-15 SS2-48] (puzzle: Exclusion 2) | – | – | 0.0171 µM | – | – | –
10 | UUCACAUGGACAUGAGAUCACAUGAGGAUCACCCAUGUGAAUAACAAGCUUUUUGUUCGUCUUAUGUCCAAUAAUAG [Stov1/14-D3] (Eterna round: R97, puzzle: Sensor, turn-off variant 1) | 0.014 µM | 0.0141 µM | – | – | – | –
11 | GAUUAUGCGAGCUUUAGGGACAUGAGGAUCACCCAUGUUCGUCUUAUUGGUCUAGAUGCACUAACAUACCUAAAUCU [JMF 26] (puzzle: Sensor v3, turn-off variant 1) | – | – | 0.0244 µM | 0.018 µM | 0.0182 µM | –
12 | GUGGCACAUGAGGAUCACCCAUGUCAGGAUAUCGCGUGUUUUUUUUCGGCCGCGCGCGCGAGAAGGGACGUCUU (puzzle: Exclusion 1) | – | – | 0.0228 µM | – | – | –
13 | CCACAUGCAGGAUAUGUAAAAUUUGACAUGAGGAUCACCCAUGUAGAUCCUGAAUUUCCUGCAGAAGGGCAUGUGG [Mat - Exclusion 5 - Eli Mod - D19] (Eterna round: R97, puzzle: Exclusion 5) | 0.605 µM | 0.149 µM | – | – | – | –
14 | ACACCUCACGUCAGGAUAUCUAUCUCGAGUGAGGAAGAGAAGGGACAUGAGGAUCACCCAUGUAUAGAAAGAAU [Usissodi] (Eterna round: R97, puzzle: Brourd's mod of Exclusion 4) | 0.125 µM | 0.0272 µM | – | – | – | –
15 | UUAUUAUAUGUAGGAUAUGCAUAUUGUUGUUAUGCAGAAGGACAUGAGGAUCACCCAUGUAUAUUGUUGUUAUAUAUUAUAUAU [Title] (Eterna round: R96, puzzle: Exclusion NG 1) | 0.0271 µM | 0.0223 µM | – | – | – | 0.0186 µM
16 | UUGUAUAUAGGAUAUGUAAGAAGAAACAUGAGGAUCACCCAUGUAGCCUCAAAUUUUAUGACAGAAGGAUAUGUUA [Default title] (Eterna round: R97, puzzle: Exclusion 5) | 0.0362 µM | 0.056 µM | – | – | – | –
17 | CUUGUUUAUGUAGGAUAUGCCUGGCGUGCCUUUGCAGAAGGACAUGAGGAUCACCCAUGUAACAUGAGGAUCACCCAUGUCGCA [salish99_ExNG1_r04_103] (Eterna round: R96, puzzle: Exclusion NG 1) | 1.19 µM | 0.854 µM | – | – | – | 0.555 µM
18 | AUAAUACAUGUAGGAUAUGCGUGGCGAAGCUAUGCAGAAGGACAUGAGGAUCACCCAUGUUCUAGCGUCUGCGUACAGAUGCUA [JL eng1 1.35 mod 1] (Eterna round: R96, puzzle: Exclusion NG 1) | 0.0373 µM | 0.0181 µM | – | – | – | 0.014 µM

Row | Sequence | apparent KD of MS2 coat protein (input ligand: FMN 200 uM) | apparent KD of MS2 coat protein (input ligand: none) | apparent KD of MS2 coat protein [1] | apparent KD of MS2 coat protein [2] | apparent KD of MS2 coat protein [3] | apparent KD of MS2 coat protein [4]
19 | CCCAUGUCAGGAUAUUAGAUACUGCCUCAAAACAAAGGCAUUGAGAAGGGACAUGAGGAUCACCCAUGUAAAAC [Leissobima] (Eterna round: R97, puzzle: Exclusion 4) | 0.0595 µM | 0.183 µM | – | – | – | –
20 | UAUGGUUAAGUCAGGAUAUACAAAUAGAAAUCUGAGUAGAAGGGACAUGAGGAUCACCCAUGUAUGGUAGUGUU [Ex4 #57] (Eterna round: R97, puzzle: Brourd's mod of Exclusion 4) | 0.079 µM | 0.0743 µM | – | – | – | –
21 | ACAAGCUUUUUGUUCGUCUUAUACACUCCUAAUAAGACAACAUGAGGAUCACCCAUGUAAGAAAUAAGAACUCAUGU [Sesor Array 4 - Jieux - Sensor v3, turn-off variant 2] (puzzle: Sensor v3, turn-off variant 2) | – | – | 0.595 µM | 0.292 µM | 0.381 µM | –
22 | CCUUUGUCAGGAUAUCAGAACACGCUCCUAGGGAGCGCAAAUGAGAAGGGACAUGAGGAUCACCCAUGUAAAGA [Arisesat] (puzzle: Exclusion 4) | – | – | 0.0416 µM | 0.318 µM | 0.0548 µM | –
23 | GGGUGCAGGCUGAGGUCCUACAUGAGGAUCACCCAUGUGGUCCGGUGACGUGAGUCGCCGGACUUGGCUCGUCUUGU [salish99_S_TOV1_R5_011] (Eterna round: R97, puzzle: Sensor, turn-off variant 1) | 0.0422 µM | 0.0521 µM | – | – | – | –
24 | GGCAUCGGAGGAUAUACUUAAGGUGAUGUUCGAAGCUUUCUACUUGAGGAUCACCCAAGUAGAAGGCCGAUGCC [jl-ex2.4.77 ViennaUCT mod] (Eterna round: R97, puzzle: Exclusion 2) | 0.00763 µM | 0.0196 µM | – | – | – | –
25 | CAUGAUUGACGAGGAUAUUGUUCUACAUCACGACGAGAAGGCGUCUGUCACAUGAGGAUCACCCAUGUGAGUCUGGUGAAUGAG [Ex NG1 #82] (Eterna round: R96, puzzle: Exclusion NG 1) | 0.031 µM | 0.0218 µM | – | – | – | 0.0172 µM
26 | CGCGAGGGAGGAUAUGCACUCAGUGAUCACGCCCAAAUUCGACAUGAGGAUCACCCAUGUAGAAGGCCCGGCUA [EX2 B.15] (Eterna round: R97, puzzle: Exclusion 2) | 0.0211 µM | 0.019 µM | – | – | – | –
27 | AUAUGUGCGAGAGGAUAUCGUGUACAAAGUACACGAGAAGGCUUCACAUGAGGAUCACCCAUGUACCGAGGUGAAACACCUUGA [Omei Exc(NG)1 Bv5] (Eterna round: R96, puzzle: Exclusion NG 1) | 0.357 µM | 0.234 µM | – | – | – | 0.156 µM
28 | UAUUAGCAAGCGAGAUCCCACAUGAGGAUCACCCAUGUAAGCAUCCAGAAUUACUGGGUGCAAAAGCUCGUCUUAUA [Winner reversed engineered 5] (Eterna round: R97, puzzle: Sensor, turn-off variant 1) | 0.0297 µM | 0.031 µM | – | – | – | –
29 | GUGUAGAUAGGAUAUGCUGGAAUCUAGCGAAGCUAGGUUCCACAUGAGGAUCACCCAUGUAGAAGGGUCUACAC [Dot plot directed A v11] (puzzle: Exclusion 2) | – | – | 0.127 µM | – | – | –
30 | GUAAUUAAUGUAGGAUAUGCAAGGCGAACCUAAGCAGAAGGACAUGUGGAUCACCCAUGUAAACAUGAGGAUCACCCAUGUGCU [salish99_ExNG1_r4_006] (Eterna round: R96, puzzle: Exclusion NG 1) | 1.32 µM | 4.27 µM | – | – | – | 1.34 µM
31 | UCCUCACAUGAGGAUCACCCAUGUGAGGAUAUCAUGCUUCGUAGUAAACUACGAAGUGUGAGAAGGCACAUGGC [Omei Ex1 D15] (Eterna round: R97, puzzle: Exclusion 1) | 0.0239 µM | 0.0196 µM | – | – | – | –
32 | GGGUCACAUGAGGAUCACCCAUGUGAGGAUAUGAUACUAUGUACUUCGGUACAUAGUAUCAGAAGGCACAUCCC [Ex1-3: 17] (puzzle: Exclusion 1) | – | – | 0.0186 µM | – | – | –
33 | UGAUUGUUUACCAGAUUAUACAUGAGGAUCACCCAUGUAGAUCCUACGUGCACGUUAUACAGCUCGUCUUAUUCCCA [Sensor-V1 #74] (Eterna round: R97, puzzle: Sensor, turn-off variant 1) | 0.0354 µM | 0.0362 µM | – | – | – | –
34 | CCGCUCCGUGUAGGAUAUUGGCGUGCUCUGCGCCGAGAAGGACAUGAGGAUCACCCAUGUAUGUUAUUAUCACGCGUGGCGCAU [Design 78] (Eterna round: R96, puzzle: Exclusion NG 1) | 0.0306 µM | 0.0186 µM | – | – | – | 0.0115 µM
35 | UGCUGACGAGGAUAUACAUGAGGAUCACCCAUGUUGGUCAAGCGACGAUAGUCGCAAUGUAGAAGGUGUCAGCA [E3/8-B1] (Eterna round: R97, puzzle: Exclusion 3) | 0.694 µM | 0.114 µM | – | – | – | –
